Each block holds one binder with its values, some of them ahead of it. Ends that are not written are not given here.
Key:
[1] = molecular target: PSA-alpha-2-macroglobulin complex (PSA-A2M), purified (human) (UniProt P07288); experiment: cell-based or functional assay
[2] = molecular target: Prostate specific antigen (PSA), purified from human seminal fluid (human) (UniProt P07288); experiment: inhibition IFMA: 200 µl fraction preincubated with PSA captured by MAb 5E4, then GST-C4 (167 nM); competitor GST-C-4

enzyme activity of A2M-complexed PSA (S-2586, OD 405 nm), 50-fold molar excess of peptide [1]: 2 fold
B1: chemically synthesized peptide C-4 with GA flanks (…) (peptide)
peptide: GACVAYCIEHHCWTCGA
modifications: disulfide (positions not given here); not fully specified (bridges); also: cyclic, disulphide bonds between cysteines, pairing of the four Cys not given here

reduction of the binding of GST-peptide to PSA (%) [2]: 30%
Binder: CVAYCIEHHCWTC (peptide, part only; not given: vector flanking residues, part only) [peptide cleaved from GST-C-4 by thrombin (about 3 kD, estimated 31 residues)]
